In patent publication US20090214547A1 (published 2009) one finds Kd, koff and kon data, which are given here for 1 molecule.

By Kd is commonly meant the constant that tells how readily two partners part at equilibrium. A lower Kd goes with a tighter complex. The koff is a measure of how fast the partners let go of each other. Low readings indicate a long-lived complex, high ones a short-lived complex. One may read the kon as the second-order rate constant of association. A high value points to fast association.

This experiment addresses T1, Pneumolysin, 57 kDa (full length w/His-tag) (Streptococcus pneumoniae, UniProt Q04IN8 2-471).
T1 construct: also called Antigen; PLY
Kind of experiment: SPR, Mab captured on Protein-G chip. (SPR reads the build-up and loss of mass on a sensor chip optically.)

T1 sequence (Q04IN8 2-471): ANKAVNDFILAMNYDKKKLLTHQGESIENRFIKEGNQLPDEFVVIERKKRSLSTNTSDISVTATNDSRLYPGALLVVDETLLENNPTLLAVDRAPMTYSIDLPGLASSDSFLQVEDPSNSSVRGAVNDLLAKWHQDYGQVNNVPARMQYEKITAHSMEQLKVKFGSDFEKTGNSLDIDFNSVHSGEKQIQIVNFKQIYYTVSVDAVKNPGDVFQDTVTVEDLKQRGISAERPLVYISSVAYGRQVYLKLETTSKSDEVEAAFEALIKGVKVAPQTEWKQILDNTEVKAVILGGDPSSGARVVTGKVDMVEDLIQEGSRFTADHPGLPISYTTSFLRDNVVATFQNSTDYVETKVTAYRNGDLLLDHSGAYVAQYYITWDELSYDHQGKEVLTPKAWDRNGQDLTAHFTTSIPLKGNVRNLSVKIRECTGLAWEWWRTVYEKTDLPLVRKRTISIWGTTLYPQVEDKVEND

B1: 26-5F12.1 (antibody, V domains shown)
VH: VKLQESGAEVKKPGASVKVSCTASGYIFTSYAIHWVRQAPGQRLEWMGWINAGYGNTKYSQKFQGRVSITRDKSASTAYMELSSLRSEDTAVYYCARRGQQLAFDYWGQGTTVTVSS
VL: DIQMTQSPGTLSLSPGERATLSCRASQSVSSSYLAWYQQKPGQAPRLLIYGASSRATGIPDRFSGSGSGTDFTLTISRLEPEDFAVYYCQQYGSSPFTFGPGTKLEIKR
notes: also called PdB26-5F12.1
In the case of B1, the equilibrium dissociation constant (Kd) came to 0.82 nM, the koff was found to be 0.00043 s⁻¹ and the association rate constant (kon) was 530000 M⁻¹ s⁻¹.
